Assays:
recombinant CD3 proteins [1] = molecular target: T1, recombinant CD3 proteins (UniProt P07766 23-126); experiment: Octet BLI, recombinant CD3; Full R^2 0.9778
T1 construct: elsewhere it uses human CD3 E/D and E/G heterodimers

recombinant CD3 proteins [2] = molecular target: T1, recombinant CD3 proteins; experiment: Octet BLI, recombinant CD3; Full R^2 0.9599
recombinant CD3 proteins [3] = molecular target: T1, recombinant CD3 proteins; experiment: Octet BLI, recombinant CD3; Full R^2 0.9688
recombinant CD3 proteins [4] = molecular target: T1, recombinant CD3 proteins; experiment: Octet BLI, recombinant CD3; Full R^2 0.9897
recombinant CD3 proteins [5] = molecular target: T1, recombinant CD3 proteins; experiment: Octet BLI, recombinant CD3; Full R^2 0.998
recombinant CD3 proteins [6] = molecular target: T1, recombinant CD3 proteins; experiment: Octet BLI, recombinant CD3; Full R^2 0.9968
recombinant CD3 proteins [7] = molecular target: T1, recombinant CD3 proteins; experiment: Octet BLI, recombinant CD3; Full R^2 0.5677
recombinant CD3 proteins [8] = molecular target: T1, recombinant CD3 proteins; experiment: Octet BLI, recombinant CD3; Full R^2 0.9986
recombinant CD3 proteins [9] = molecular target: T1, recombinant CD3 proteins; experiment: Octet BLI, recombinant CD3; Full R^2 0.8423
recombinant CD3 proteins [10] = molecular target: T1, recombinant CD3 proteins; experiment: Octet BLI, recombinant CD3; Full R^2 0.9829

T1 sequence (P07766 23-126): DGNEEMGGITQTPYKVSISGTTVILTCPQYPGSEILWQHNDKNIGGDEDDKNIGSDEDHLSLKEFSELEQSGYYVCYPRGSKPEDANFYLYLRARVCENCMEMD

B1: CD3 × CD33-BspAb83 (bispecific antibody)
chain 1: EVQLVESGGGLVKPGGSLRLSCVASGFTFSRYSMNWVRQAPGKCLEWVSSISSSSRYTYYADSLKGRFIMSRDNAKNSLFLQMNSLRAEDTAVYYCARNLYNALDYWGQGTLVTVSSGGGGSGGGGSGGGGSGGGGSFMLTQPHSVSESPGKTVTISCTRSSGSIASNYVQWYQQRPGSSPTTVIYEDNQRPSGVPDRFSGSIDSSSNSASLTISGLQTEDEADYYCQSYDSSNRVFGCGTKLTVLDKTHTCPPCPAPEFEGGPSVFLFPPKPKDTLMISRTPEVTCVVVDVSHEDPEVKFNWYVDGVEVHNAKTKPREEQYNSTYRVVSVLTVLHQDWLNGKEYKCKVSNKALPASIEKTISKAKGQPREPQVYTLPPCREEMTKNQVSLWCLVKGFYPSDIAVEWESNGQPENNYKTTPPVLDSDGSFFLYSKLTVDKSRWQQGNVFSCSVMHEALHNHYTQKSLSLSPGK
chain 2: EVQLVQSGAEVKKPGSSVKVSCKASGYTITDSNIHWVRQAPGQSLEWIGYIYPYNGGTDYNQKFKNRATLTVDNPTNTAYMELSSLRSEDTAFYYCVNGNPWLAYWGQGTLVTVSSASTKGPSVFPLAPSSKSTSGGTAALGCLVKDYFPEPVTVSWNSGALTSGVHTFPAVLQSSGLYSLSSVVTVPSSSLGTQTYICNVNHKPSNTKVDKRVEPKSCDKTHTCPPCPAPEFEGGPSVFLFPPKPKDTLMISRTPEVTCVVVDVSHEDPEVKFNWYVDGVEVHNAKTKPREEQYNSTYRVVSVLTVLHQDWLNGKEYKCKVSNKALPASIEKTISKAKGQPREPQVCTLPPSREEMTKNQVSLSCAVKGFYPSDIAVEWESNGQPENNYKTTPPVLDSDGSFFLVSKLTVDKSRWQQGNVFSCSVMHEALHNRFTQKSLSLSPGK
chain 3: DIQLTQSPSTLSASVGDRVTITCRASESLDNYGIRFLTWFQQKPGKAPKLLMYAASNQGSGVPSRFSGSGSGTEFTLTISSLQPDDFATYYCQQTKEVPWSFGQGTKVEVKRTVAAPSVFIFPPSDEQLKSGTASVVCLLNNFYPREAKVQWKVDNALQSGNSQESVTEQDSKDSTYSLSSTLTLSKADYEKHKVYACEVTHQGLSSPVTKSFNRGEC
Kd (recombinant CD3 proteins [1]): 3.28 nM | koff (recombinant CD3 proteins [1]): 0.00134 s⁻¹ | kon (recombinant CD3 proteins [1]): 408000 M⁻¹ s⁻¹

B2: CD3 × CD33-BspAb86 (bispecific antibody)
chain 1: EVQLVESGGGLVKPGGSLRLSCAASGFTFSSYSMNWVRQAPGKCLEWVSSISRSGTYIYYADSVKGRFTISRDNAKNSLYLQMNSLRAEDTAVYYCARERWELLYFDYWGQGTLVTVSSGGGGSGGGGSGGGGSGGGGSQTVVTQEPSLTVSPGGTVTLTCASSTGAVTSGYYPNWFQQKPGQAPRALIYSTSNKHSWTPARFSGSLLGGKAALTLSGVQPEDEAEYYCLLYYGGAYVFGCGTKVTVLDKTHTCPPCPAPEFEGGPSVFLFPPKPKDTLMISRTPEVTCVVVDVSHEDPEVKFNWYVDGVEVHNAKTKPREEQYNSTYRVVSVLTVLHQDWLNGKEYKCKVSNKALPASIEKTISKAKGQPREPQVYTLPPCREEMTKNQVSLWCLVKGFYPSDIAVEWESNGQPENNYKTTPPVLDSDGSFFLYSKLTVDKSRWQQGNVFSCSVMHEALHNHYTQKSLSLSPGK
chain 2: B1 chain 2
chain 3: B1 chain 3
Kd (recombinant CD3 proteins [2]): 54.2 nM | koff (recombinant CD3 proteins [2]): 0.0149 s⁻¹ | kon (recombinant CD3 proteins [2]): 276000 M⁻¹ s⁻¹

B3: CD3 × CD33-BspAb88 (bispecific antibody)
chain 1: QVQLVQSGAEVKKPGASLKVSCKASGYTFTSYYMHWVRQAPGQCLEWMGIINPSNGNTISAQKFQGRVTMTRDTSTSTVYMEMSSLRSEDTAVYYCVRSWGYYVMDVWGQGTTVTVSSGGGGSGGGGSGGGGSGGGGSQTVVTQEPSFSVSPGGTVTLTCGLNSGSVSTSYYPSWYQQTPGQTPRTLIYSTNTRSSGVPDRFSGSILGNKAALTITGAQADDESDYYCVLYMGSGIWVFGCGTKLTVLDKTHTCPPCPAPEFEGGPSVFLFPPKPKDTLMISRTPEVTCVVVDVSHEDPEVKFNWYVDGVEVHNAKTKPREEQYNSTYRVVSVLTVLHQDWLNGKEYKCKVSNKALPASIEKTISKAKGQPREPQVYTLPPCREEMTKNQVSLWCLVKGFYPSDIAVEWESNGQPENNYKTTPPVLDSDGSFFLYSKLTVDKSRWQQGNVFSCSVMHEALHNHYTQKSLSLSPGK
chain 2: B1 chain 2
chain 3: B1 chain 3
Kd (recombinant CD3 proteins [3]): 12.6 nM | koff (recombinant CD3 proteins [3]): 0.000778 s⁻¹ | kon (recombinant CD3 proteins [3]): 61800 M⁻¹ s⁻¹

B4: CD3 × CD33-BspAb84 (bispecific antibody)
chain 1: EVQVAESGGGLVKPGGSLRLSCAASGFTFSRYSMNWVRQAPGKCLEWVSSISSSGSYTYYADSVKGRFTISRDNAKNSLYLQMNSLRAEDTAVYYCVRERGKGAGMDVWGQGTTVTVSSGGGGSGGGGSGGGGSGGGGSNFMLTQPHSVSESPGKTVTISCTRSSGSIASNYVQWYQQRPGSSPTTVIYEDNQRPSGVPDRFSGSIDSSSNSASLTISGLKTEDEADYYCQSYDSSNRVFGCGTKLTVLDKTHTCPPCPAPEFEGGPSVFLFPPKPKDTLMISRTPEVTCVVVDVSHEDPEVKFNWYVDGVEVHNAKTKPREEQYNSTYRVVSVLTVLHQDWLNGKEYKCKVSNKALPASIEKTISKAKGQPREPQVYTLPPCREEMTKNQVSLWCLVKGFYPSDIAVEWESNGQPENNYKTTPPVLDSDGSFFLYSKLTVDKSRWQQGNVFSCSVMHEALHNHYTQKSLSLSPGK
chain 2: B1 chain 2
chain 3: B1 chain 3
Kd (recombinant CD3 proteins [4]): 24.6 nM | koff (recombinant CD3 proteins [4]): 0.00671 s⁻¹ | kon (recombinant CD3 proteins [4]): 273000 M⁻¹ s⁻¹

B5: CD3 × CD33-BspAb91 (bispecific antibody)
chain 1: DIQMTQSPSTLSASVGDRVTITCRASQSISSWLAWFQQKTGKAPKLLIYKASSLESGVPSRFSGSGSGTEFTLTISSLQPDDFATYYCQQYISYSWTFGCGTKVEIKGGGGSGGGGSGGGGSGGGGSEVQLVESGGGLVQRGGSLRLSCAASGFTFSNYWMSWVRQAPGKCLEWVANIKEDGSEKYYVDSVKGRFTISRDNAKHSLYLQMNSLRAEDTAVYYCARERRTGYFDYWGQGTLVTVSSDKTHTCPPCPAPEFEGGPSVFLFPPKPKDTLMISRTPEVTCVVVDVSHEDPEVKFNWYVDGVEVHNAKTKPREEQYNSTYRVVSVLTVLHQDWLNGKEYKCKVSNKALPASIEKTISKAKGQPREPQVYTLPPCREEMTKNQVSLWCLVKGFYPSDIAVEWESNGQPENNYKTTPPVLDSDGSFFLYSKLTVDKSRWQQGNVFSCSVMHEALHNHYTQKSLSLSPGK
chain 2: B1 chain 2
chain 3: B1 chain 3
Kd (recombinant CD3 proteins [5]): 63.8 nM | koff (recombinant CD3 proteins [5]): 0.00203 s⁻¹ | kon (recombinant CD3 proteins [5]): 31900 M⁻¹ s⁻¹

B6: CD3 × CD33-BspAb90 (bispecific antibody)
chain 1: not shown
chain 2: B1 chain 2
chain 3: B1 chain 3
Kd (recombinant CD3 proteins [6]): 334 nM | koff (recombinant CD3 proteins [6]): 0.00459 s⁻¹ | kon (recombinant CD3 proteins [6]): 13800 M⁻¹ s⁻¹

B7: CD3 × CD33-BspAb87 (bispecific antibody)
chain 1: EVQLVESGGGLVKPGGSLRLSCAASGFTVSNYSMNWVRQAPGKCLEWVSSISRSSSYIYYADSVKGRFTISRDNAKNSLFLQMNSLRAEDTAVYYCARERWELLYFDYWGQGTLVTVSSGGGGSGGGGSGGGGSGGGGSQTVVTQEPSFSVSPGGTVTLTCGLSSGSVSTSYYPSWYQQTPGQAPRTLIYSTNTRSSGVPDRFSGSILGNKAALTITGAQADDESDYYCVLYMGSGIWVFGCGTKLTVLDKTHTCPPCPAPEFEGGPSVFLFPPKPKDTLMISRTPEVTCVVVDVSHEDPEVKFNWYVDGVEVHNAKTKPREEQYNSTYRVVSVLTVLHQDWLNGKEYKCKVSNKALPASIEKTISKAKGQPREPQVYTLPPCREEMTKNQVSLWCLVKGFYPSDIAVEWESNGQPENNYKTTPPVLDSDGSFFLYSKLTVDKSRWQQGNVFSCSVMHEALHNHYTQKSLSLSPGK
chain 2: B1 chain 2
chain 3: B1 chain 3
Kd (recombinant CD3 proteins [7]): 5.17 nM | koff (recombinant CD3 proteins [7]): 0.00307 s⁻¹ | kon (recombinant CD3 proteins [7]): 594000 M⁻¹ s⁻¹

B8: CD3 × CD33-BspAb92 (bispecific antibody)
chain 1: not shown
chain 2: B1 chain 2
chain 3: B1 chain 3
Kd (recombinant CD3 proteins [8]): 43.8 nM | koff (recombinant CD3 proteins [8]): 0.00051 s⁻¹ | kon (recombinant CD3 proteins [8]): 11600 M⁻¹ s⁻¹

B9: CD3 × CD33-BspAb89 (bispecific antibody)
chain 1: not shown
chain 2: B1 chain 2
chain 3: B1 chain 3
Kd (recombinant CD3 proteins [9]): 24.4 nM | koff (recombinant CD3 proteins [9]): 0.0578 s⁻¹ | kon (recombinant CD3 proteins [9]): 2.37e+06 M⁻¹ s⁻¹

B10: CD3 × CD33-BspAb85 (bispecific antibody)
chain 1: EVQLVESGGGLVKPGGSLRLSCAASGFTFSSYSMNWVRQAPGKCLEWVSSISRSSGYIFYADSVKGRFTISRDNAKNSLYLQMNSLRAEDTAVYYCVRERVGAGFDYWGQGTLVTVSSGGGGSGGGGSGGGGSGGGGSNFMLTQPHSVSESPGKTVAISCTRSSGSIASNYVQWYQQRPGSSPTAVIYEDNQRPSGVPDRFSGSIDSSSNSAFLTISGLKTEDEADYYCQSYDSSNRVFGCGTKLTVLDKTHTCPPCPAPEFEGGPSVFLFPPKPKDTLMISRTPEVTCVVVDVSHEDPEVKFNWYVDGVEVHNAKTKPREEQYNSTYRVVSVLTVLHQDWLNGKEYKCKVSNKALPASIEKTISKAKGQPREPQVYTLPPCREEMTKNQVSLWCLVKGFYPSDIAVEWESNGQPENNYKTTPPVLDSDGSFFLYSKLTVDKSRWQQGNVFSCSVMHEALHNHYTQKSLSLSPGK
chain 2: B1 chain 2
chain 3: B1 chain 3
Kd (recombinant CD3 proteins [10]): 60.8 nM | koff (recombinant CD3 proteins [10]): 0.0149 s⁻¹ | kon (recombinant CD3 proteins [10]): 246000 M⁻¹ s⁻¹
